Experimental data reported in the RNAGym collection of RNA variant scans (doi:10.1073/pnas.2313332121).

B1: TPR t1 (parent)
chain: GACCAAUCUGCCCUCAGAGCUCGAGAACAUCUUCGGAUGCAGAGGAGGCAGGCUUCGGUGGCGCGAUAGCGCCAACGUCCUCAACCUCCAAUGCAUCCCACCACAUGAUGAUGCCUGAAGAGCCUUGGUUUUUUG

Variants of: B1
Assay: polymerase ribozyme fitness, log enrichment relative to wild type (log ratio); higher = more active; in vitro selection for triplet polymerase activity
Summary of the method: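 Streptavidin-bead capture of gel-excised extended constructs, followed by RT-PCR, closed a single triplicate in vitro selection round. That round began by annealing PCR-built, transcribed mutant libraries of each subunit of a heterodimeric triplet polymerase ribozyme with a biotinylated primer, the partner subunit and triplets, then incubating them frozen at −7 °C. After Illumina sequencing of inputs and outputs, genotypes needed ≥10 input reads and ≥1 read per output. Fitness is the base-2 logarithm of genotype enrichment over wild-type enrichment, using inverse-variance-weighted replicate averages.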

Variant | polymerase ribozyme fitness (log ratio)
GACCAAUCUGCCCUCGGAGCUCGAGAACAUCUUCGGAUGCAGAGGAGGCAGGCUUCGGUGUCGCGUUAGCGCCAACGUCCACAACCUCCAAUGCAUCCCACCACAAGAUGAUGCCCGAAGAGCCUUGGUUUUUUG [A16G G61U A66U U81A U106A U116C] | -0.459
GACCAAUCUGCCCUCGGAGCUCGAGAACAUCUUCGGAUGCAGAGGAGGCAGGCUUCGGUGGCGCUAUAGCGCGAACGUCCUCAACCUCAAAUGCAUCCCACCACAUGAUGAUGCCUGAAGAGACUUGGUUUUUUG [A16G G65U C73G C89A C123A] | -7.69
GACCAAUCUGCCCUCUGAGCUCGAGAACAUCUUCGGAUGCAGAGGAGGCCGGCUUAGGUGGCGCGAUAGCGCCAACGUCCUCAACCUCCAAUGCCUCCCACCACAUGAUGAUGCCUGAAGAGCCUUGGUUUUUUG [A16U A50C C56A A95C] | -3.91
GACCAAUCUGCCCUCGGAGCUCGAGAACAUCUUCGGAUGCAGAGGAGGCAGGCUUCGGUGGCGCGAUAUCGCUAACGUCCUCAACCUCCAAUGCAUCCUACCACAUGAUGAUGCCUGAAGAGCCUUGGUUUUUUG [A16G G69U C73U C99U] | -2.5
GACCAAUCUGCCCUCGGAGCUCGAGAACAUCUUCGGAUGCAGAGGAGGCAGGCUACGGUGGCGCGAUAGCGCCAACGUCCUCAACCUCCAAUGCAUCCCACAACAUGAUGAUGCCUGAAGUGCCUUGGUUUUUUG [A16G U55A C102A A121U] | -0.698
GACCAAUCUGCCCUCGGAGCUCGAGAACAUCUUCGGAUGCAGAUGAGGCAGGCUUCGGUGGCGCGAUAGCGCCAACGUCCUCAACCUCCAAUGCAUCCCACCACAUGAUGAUCCCUGACGAGCCUUGGUUUUUUA [A16G G44U G113C A119C G135A] | -6.45
GACCAAUCUGCCCUCGGAGCUCGAGAACAUCUUCGGAUGCAGAGGAGGCAGGCUUCGGUGGCGCGAUAGCGCCAACGUCCUCAACCUCCAAUGCAUCCCACCACAUGAUGAUGCCUGAAGAGCUUUGGUUUUUUG [A16G C124U] | 0.601
GACCAAUCUGCCCUCCGAGCUCGAGAACAUCUUCGGAUGCAGAGGAGGCAGGCUUCGCUGGCGCGAUAGCGCCAACGUCCUCAACCUCCAAUGCAUCCCACCACAUGAUGAUGCCUGAAGAGCCUUGGUUUUUUG [A16C G58C] | -2.65
GACCAAUCUGCCCUCGGAGCUCGAGAACAUCUUCGGAUGCAGAGGUGGCAGGCUUCGGUGGCGCGAUAGCGCCAACGUCCUCAACCUCCAAUGCAUCCCACCACAUGAUGAUGCCUGAAGAGCUUUGGUUUUUUG [A16G A46U C124U] | -0.673
GACCAAUCUGCCCUCGGAGCUCGAGAACAUCUUCGGAUGCAGAGGAGGCAGGCUUCGGUGGCGCGAUAGCGCCAAGGUCCUCAACCUCCAAUGCAUCCCACCACAUGAUGAUGCCUAAAGAGGCUUGGUUUUUUU [A16G C76G G117A C123G G135U] | -1.57
GACCAAUCUGCCCUCGGAGCUCGAGAACAUCUUCGGAUGCAGAGGAGGCAGGCUUCGGUGGCGCGAUACCGCCAACGUCCUCAACCUCCAUUGCAUCCCACCACAUGAUGAUUCCUGAAGAGCCUUGGUUUUUUG [A16G G69C A91U G113U] | -3.01
GACCAAUCUGCCCUCGGAGCUUGAGAACAUCUUCGGAUGCAGAGUAGGCAGGCUUCGGUGGCGGGAUAGCGCCAACGUCCUCAACGUCCAAUGCAUCCCACCACAUGAUGAUGCCUGAAGCGCCUUGGUUUUUUG [A16G C22U G45U C64G C86G A121C] | -7.27
GACCAAUCUGCCCUCGGAGCUCGAGAACAUCUUCGGAUGCCGAGGAGGCUGGCUUCGGUGGCGCGAUAGCGCCAACGUCCACAACCUCCAAUGCAUCCCACCACAAGAUGAUGCCUGAAGAGCCUUGGUUUUUUG [A16G A41C A50U U81A U106A] | -2.3
GACCAAUCUGCCCUCGGAGCUCGAGAACAUCUUCGGAUGCAGAGGAGGCAGGCUUCGGUGGCGCGAUAGCGCCUACGUCCUCAACCUCCAAUGCAUCCCACCACAUGAUGAUGCCUGAAGAGCCUUGGUUUUUUG [A16G A74U] | -1.36
GACCAAUCUGCCCUCUGAGCUCGAGAACAUCUUCGGAUGCAGAGGUGGAAGGCUUCGGUGGCGCGAUAGCGCCAACGUCCUCAACCUCCAAUGCAUCCCACCACAUGAUGAUGCCUGAAGAGCCUUGGUUUUUUG [A16U A46U C49A] | -2.45
GACCAAUCUGCCCUCGGAGCUCGAGAACAUCUUCGGAUGCAGAGGAGGCAGGCUUCGGUGGCGCGAUAGCGCCAACGUCCUCAACCUCCAAUACAUCCCACCACAUGAUGAUGCCUGAAAAUCCUUGGUGUUUUG [A16G G93A G120A G122U U130G] | -3.58
GACCAAUCUGCCCUCUGAGCUCGAGAUCAUCUUCGGAUGCAGAGGAGGCAGGCUUCGGUGACGCGAUAGCGCCAACGUCCUCAACCUCCAAUGCAUCCCACCACAUGAUGAUGCCUGAAGAGCCUUGGUUUUUUG [A16U A27U G61A] | -4.42
GACCAAUCUGCCCUCGGAGCUCGAGAACAUCUUCGGAUGCCGAGGAGGCAGGCUUCGGUGGCGCGAUAGCGCCAACGUCCUCAUCCUCCAAUGCAUCCAACCACAUGAUGAUGCCUCAAGAGCCUUGGUUUUCUG [A16G A41C A84U C99A G117C U133C] | -4.53
GACCAAUCUGCCCUCUGAGCUCGAGAACAUCUUCGGAUGCAGUGGAGGCAGGCUUCGGUGGCGCGAUAGCGCCAACGUCCUCAACCUCCAAUGCAUCCCACCACAUGAUGACGCCUGAAGAGCCUUGGUUUUUUG [A16U A43U U112C] | -1.59
GACCAAUCUGCCCUCGGAGCUCGAGAACAUCUUCGGAUGCAGAGGAGGCAGGCUUCGGUGGCGCGAUAGCGCCAACGUCCUCAACCUCCAAUGCAUCCCACCACAUGAUGAUGCCUCAAGAGCCUUGGUUUUUUG [A16G G117C] | -3.97
GACCAAUCUGCCCUCGGAGCUAGAGAACAUCUUCGGAUGCAGAGGAUUCAGGCUUCGGUGGCGUGAUAGCGCCAACGUCCUCAACCUCCAAUGCAUCCCACCACAUGAUGAUGCCUGAAGAGGCUUGGUUUUUUG [A16G C22A G47U G48U C64U C123G] | -6.67

Variant | polymerase ribozyme fitness (log ratio)
GACCAAUCUGCCCUCGGAGCUCGAGAACAUCUUCGGAUGCAGAGGAGGCAGGCUUCGGUGGCGCGAUAGCUCCAACGUCCUCAACCUCCAAUGCAUCCCACCACAUGAUGAUGCCUGAAGAGUCUUGGUUUUUUG [A16G G71U C123U] | -0.364
GACCAAUCUGCCCUCUGAGAUCGAGAACAUCUUCGGAUGCAGAGGAGGCAGGCUUAGGUGGCGCGAUAGCGCCAACGUCCUCAACCUCCAAUGCAUCCCACCACAUGAUGAUGCCUGAAGAGCCUUGGUUUUUUG [A16U C20A C56A] | -5.28
GACCAAUCUGCCCUCGGAGCUCGAGAACAUCUUCGGAUGCAGAGGAGGCAGACUUAGGUGGCGCGAUAUCGCCAACGUCCUCAACCUCCAAUGCAUCCCACCACAUGAUGAUGCCUGAAGAGCCUUGGUUUUUUG [A16G G52A C56A G69U] | -1.69
GACCAAUCUGCCCUCCGAGCUCGAGAACAUCUUCGGAUGCAGAGGAGGCAGGCUUCGGUGGCGCGAUAGCGCCAACGUCCUCAACCACCAAUGCAUCCCACCACAUGAUGAUGCCUGAAGAGGCUUGCUUUUUUG [A16C U87A C123G G128C] | -1.81
GACCAAUCUGCCCUCGGAGCUCGAGAACAUCUUCGGAUGAAGAGGAGGGAGGCUUCGGUGGCGCGAUAGCGCCAACGUCCUCAACCUCCAAUGCAUCCCACCACAUGAUGAUGCCUGAAGAGCCUUGGUUUUUUG [A16G C40A C49G] | -3.32
GACCAAUCUGCCCUCGGAGCUCGAGAACAUCUUCGGAUGCAGAGGAGGCAGGCUUCGGUGGCGCGAUAGCGCCAACGUCCUCAACCUCCAAUACAUCCCACCACAUGAGGAUGCCUGAAGAGCCUUGGUUUUUUG [A16G G93A U109G] | -5.43
GACCAAUCUGCCCUCGGAGCUCGAGAACAUCUUCGGAUGCAGAGGAGGCAGGCUUCGGUGGCGCGAUAGCGCCAAGGUCCUCAACCUCCAAUGCAUCCCACCACAUGAUGAUGCCUGAAAAGCCUUGGUUUUUUG [A16G C76G G120A] | -2.25
GACCAAUCUGCCCUCGGAGCUCGAGAACAUCUUCGGAUGCAGAGGAGACAGGCUUCGGUGGCGCGAUAGCGCCAACGUCCUCAACCUCCAAUGCAUCCCACCACAUGAUAAUGCCUGAAGAGCCUUGGUUUUUUG [A16G G48A G110A] | -2.05
GACCAAUCUGCCCUCCGAGCUCGAGAACAUCGUCGGAUGCAGAGGAGGCAGGCUUCGGUGGCGCGAUAACGCCAACGUCCUCAACCUCCAAUGCAUCCCACCACAUGACGAUGCCUGAAGAGCCUUGGUUUUUUA [A16C U32G G69A U109C G135A] | -6.26
GACCAAUCUGCCCUCGGAGCUCGAGAACAUCUUCGGAUGCAGAGGAGGCAGGCUUCGGUGGCGCGAUACCGCCAACGUCCUCAGCCUCCAAUGCAUCCCACAACAUGAUGAUGUAUGAAGAGCCUUGGUUUUUUG [A16G G69C A84G C102A C114U C115A] | -6.44
GACCAAUCUGCCCUCCGAGCUCGAGAACAUCUUCGGAUGCAGAGGAGGCAGGCUUCGGUGGCGCGAUAGCGCCAACGUCCUCAACCUCCAAUGCAUCCCACCACAUGAUGACGCCUGAAGAGCCUUGGUUUUUUG [A16C U112C] | -0.921
GACCAAUCUGCCCUCUGAGCUCGAGAACAUCUUCGGCUGCAGAGGAGGCAGGAUUCGGUGGCGCGAUAGCGCCAACGUCCUCAACCUCCAGUGCAUCCCACCACAUGAUGAAGCCUGAAGAGCCUUGGUUUUUUG [A16U A37C C53A A91G U112A] | -1.42
GACCAAUCUGCCCUCUGAGCUGGAGAACAUCUUCGGAUGCAGAGGAGGCAGGCUUCGGUGGCGUGAUAGCGCCAACGUCCUCAACCUCCAAUGCAUCCCACCACAUGAUGAUGCCUGAAGAGCCUUGGUUUUUUG [A16U C22G C64U] | -4.96
GACCAAUCUGCCCUCUGAGCUCGAGAAUAUCUUCGGAUGCAGAGGAGGCAGGCUUCGGUGGCGCGAUAGCGCCAAGGUCCUUAACCUCCAAUGCAUCCCACCACAUGAUGAUGCCAGAAGAGCCUUGGUUUUUUG [A16U C28U C76G C82U U116A] | -3.83
GACCAAUCUGCCCUCGGAGCUCGAGAACAUCUUCGGAUGCAGAGGAGGCAGGCUUCGGUGGCGCGAUGGCGCCAACGUCCUCAACCUCCAAUGCAUCCCACCACAUGAUGAUGCCUGAAGAGCCUUGGUUUUUUG [A16G A68G] | -4.75
GACCAAUCUGCCCUCGGAGCUCGAGAACAUCUUCGGAUGCAGGGGAGGCAGGCUUCGGUGGCGCGAUAGCGCCAACGUCCUCAACCUCCAAUGCAUCCCACCACAUGAUGAUGCCUGAAGAGCUAUGGUUUUUUG [A16G A43G C124U U125A] | -1.48
GACCAAUCUGCCCUCCGAGCUCGAGAACAUCUUCGGAUGCAGAGGAGGCAGGCUUCGGUGGCGCGAUAGCGCCAACGUCCUCAACCUCCAAUGCAUCCCACCACAUGAUGAUGCCUGAAGAACCUUGGUUUUUUG [A16C G122A] | -4.43
GACCAAUCUGCCCUCGGAGCUCGAGAACAUCUUCGGAUGCAGAGGAGGCAGGCUUCGGUGGCGCGAUAGCGCCAACGUCCACAACCUCCAAUGCAUCCCACCACAUGAUGAUGCCUGAAGAGCCUUGGUUUUUUG [A16G U81A] | -2.36
GACCAAUCUGCCCUCGGAGCUCGAGAACAUCUUCGGAUGCAGAGGAGGGAGGCUUGGGUGGCGCGAUAGCGCCAACGUCCUCAACCUCCAAUGCAUCCCACCACAUGAUGAUGCCUGAAGAGCCUUGGUUUUUUG [A16G C49G C56G] | -4.65
GACCAAUCUGCCCUCGGAGCUCGAGAACAUCUUCGGAUGCAGAGGAGGAAGGCUUCGGUGGCGCGAUAGCGCUAACGUCCUCAACCUCCAAUGCAUCCCACCACAUGAUGAUGCCUGAAGAGCCUUGGUUUUUUG [A16G C49A C73U] | -0.946
GACCAAUCUGCCCUCCGAGCUCGAGAACAUCUUCGGAGGCAGAGGUGGCAGGCUUAGGAGGCGCGAUAGCGCCAACGUCCUCAACCGCCAAUGCAUCCCACCACAUGAUGAUGCCUGAAGAGCCUUGGUUUUUUG [A16C U38G A46U C56A U59A U87G] | -4.62
